Assay in all cases: cell-based or functional assay
In assay [1] the target is Kv1.3 (human) (UniProt P22001).
The target in assay [2] is CXCR1 (UniProt P25024).
For assay [3], the target named is CXCR1 (UniProt P25024). The source holds these as a separate data set.

“And” between values parts separate entries of the source, which are not always exact repeats. Identical values can stand only once. Like-named read-outs stand apart in the source and are kept apart here.

Sequence of interleukin 8 (soluble) (P10145 28-99 limits assumed): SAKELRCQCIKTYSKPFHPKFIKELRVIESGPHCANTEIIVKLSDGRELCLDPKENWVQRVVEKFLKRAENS
Sequence of Kv1.3 (human) (P22001 whole entry): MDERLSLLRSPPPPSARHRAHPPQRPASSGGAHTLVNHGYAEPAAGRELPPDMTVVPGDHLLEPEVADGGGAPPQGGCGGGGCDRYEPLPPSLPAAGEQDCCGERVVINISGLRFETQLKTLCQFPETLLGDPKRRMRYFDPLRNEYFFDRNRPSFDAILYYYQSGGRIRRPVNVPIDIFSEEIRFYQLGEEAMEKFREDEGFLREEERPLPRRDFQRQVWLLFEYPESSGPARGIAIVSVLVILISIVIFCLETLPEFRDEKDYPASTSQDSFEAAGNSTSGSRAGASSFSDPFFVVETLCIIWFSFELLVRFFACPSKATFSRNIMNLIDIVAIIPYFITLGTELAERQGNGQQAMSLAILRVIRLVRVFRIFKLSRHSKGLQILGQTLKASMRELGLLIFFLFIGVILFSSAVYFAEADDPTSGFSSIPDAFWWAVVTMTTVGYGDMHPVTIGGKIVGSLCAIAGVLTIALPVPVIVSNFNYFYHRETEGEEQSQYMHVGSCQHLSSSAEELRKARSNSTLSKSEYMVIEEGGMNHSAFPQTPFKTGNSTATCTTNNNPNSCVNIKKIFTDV
Sequence of CXCR1 (P25024 whole entry): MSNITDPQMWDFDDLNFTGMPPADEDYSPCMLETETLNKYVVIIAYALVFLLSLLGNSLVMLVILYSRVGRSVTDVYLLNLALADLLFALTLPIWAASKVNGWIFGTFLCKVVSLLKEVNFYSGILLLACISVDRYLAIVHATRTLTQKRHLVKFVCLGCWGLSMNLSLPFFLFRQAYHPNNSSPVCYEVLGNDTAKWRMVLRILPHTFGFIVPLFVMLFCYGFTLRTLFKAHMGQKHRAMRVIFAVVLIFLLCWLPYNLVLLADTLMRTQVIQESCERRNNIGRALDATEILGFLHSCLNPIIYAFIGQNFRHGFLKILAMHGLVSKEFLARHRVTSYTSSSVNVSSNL

Regarding Negative Control IgG (antibody), in assay [1], the IL-2 ELISA (A450), Donor 1, [IgG] 0.01 nM is 2 A450 and 2.15 A450; the IL-2 ELISA (A450), Donor 1, [IgG] 0.75 nM was 2.11 A450 and 2.04 A450; the IL-2 ELISA (A450), Donor 1, [IgG] 68 nM is 1.48 A450 and 1.55 A450; the IL-2 ELISA (A450), Donor 2, [IgG] 0.01 nM was 1.61 A450 and 1.48 A450. In assay [1], the IL-2 ELISA (A450), Donor 2, [IgG] 0.75 nM is 1.56 A450 and 1.52 A450; the IL-2 ELISA (A450), Donor 2, [IgG] 68 nM is 1.5 A450 and 1.37 A450; the TNF-α ELISA (A450), Donor 1, [IgG] 0.01 nM is 1.62 A450 and 1.66 A450; the TNF-α ELISA (A450), Donor 1, [IgG] 0.75 nM is 1.69 A450 and 1.65 A450. Besides, in assay [1], the TNF-α ELISA (A450), Donor 1, [IgG] 68 nM was 1.02 A450 and 1.13 A450; the TNF-α ELISA (A450), Donor 2, [IgG] 0.01 nM is 2.07 A450 and 1.77 A450; the TNF-α ELISA (A450), Donor 2, [IgG] 0.75 nM is 2.04 A450 and 1.85 A450; the TNF-α ELISA (A450), Donor 2, [IgG] 68 nM is 1.88 A450 and 1.54 A450.
Turning to “IgG VH4-4 CDR3 BsaI (lacking the IL-8 insert) (antibody)”, in assay [2], the average RLU at 0.001 nM IgG is 7500 RLU, the average RLU at 0.004 nM IgG is 7390 RLU, the average RLU at 0.013 nM IgG came out at 7050 RLU and the average RLU at 0.040 nM IgG amounted to 6970 RLU. In assay [2], the average RLU at 0.120 nM IgG was 7330 RLU, the average RLU at 0.359 nM IgG is 6690 RLU, the average RLU at 1.076 nM IgG is 7180 RLU and the average RLU at 3.228 nM IgG was found to be 7030 RLU. In addition, in assay [2], the average RLU at 9.685 nM IgG came out at 7170 RLU, the average RLU at 29.056 nM IgG worked out at 7100 RLU, the average RLU at 87.167 nM IgG came to 7140 RLU and the average RLU at 261.500 nM IgG came to 7540 RLU.
In assay [1], BLV1H12 (antibody) showed an IL-2 ELISA (A450); Donor 1; 150 nM IgG of 0.445 A450, an IL-2 ELISA (A450); Donor 2; 150 nM IgG of 0.355 A450, a TNF-α ELISA (A450); Donor 1; 150 nM IgG of 0.11 A450 and a TNF-α ELISA (A450); Donor 2; 150 nM IgG of 0.058 A450.
In assay [3], “interleukin 8 (soluble) (from UniProt P10145 28-99) (ligand)” came in with a luminescence at 0.4 nM IL-8 domains of 4930, a luminescence at 1.6 nM IL-8 domains of 8730, a luminescence at 6.25 nM IL-8 domains of 22300 and a luminescence at 25 nM IL-8 domains of 42200. The luminescence at 100 nM IL-8 domains in assay [3] amounted to 54000. In assay [2], this substance had an average RLU at 0.01 nM of 440 RLU, an average RLU at 0.08 nM of 504 RLU, an average RLU at 0.23 nM of 940 RLU and an average RLU at 0.69 nM of 1940 RLU. In assay [2], this substance showed an average RLU at 2.06 nM of 4110 RLU, an average RLU at 6.17 nM of 5870 RLU, an average RLU at 18.52 nM of 7300 RLU and an average RLU at 31.5 nM of 55500 RLU. Besides, in assay [2], the average RLU at 55.56 nM turned out to be 7360 RLU, the average RLU at 166.67 nM was found to be 6770 RLU, the average RLU at 500.00 nM is 5720 RLU and the luminescence at 0.1 nM IL-8 domains was 4200. In addition, in assay [2], the luminescence at 0.4 nM IL-8 domains was 6530, the luminescence at 0.5 nM IL-8 domains stood at 9790, the luminescence at 1.6 nM IL-8 domains stood at 12200 and the luminescence at 2.2 nM IL-8 domains was determined as 25700. In assay [2], this substance came in with a luminescence at 6.25 nM IL-8 domains of 28600, a luminescence at 9.9 nM IL-8 domains of 50300, a luminescence at 25 nM IL-8 domains of 50500 and a luminescence at 44 nM IL-8 domains of 54100. Further, in assay [2], the luminescence at 100 nM IL-8 domains was determined as 70200 and the luminescence at 200 nM IL-8 domains stood at 50400.

Source of the values: patent US20160159928A1.
